T1: human IL-1RAcP on 293T/17-FR cells (human, UniProt Q9NPH3 21-570)
T1 sequence (looked up): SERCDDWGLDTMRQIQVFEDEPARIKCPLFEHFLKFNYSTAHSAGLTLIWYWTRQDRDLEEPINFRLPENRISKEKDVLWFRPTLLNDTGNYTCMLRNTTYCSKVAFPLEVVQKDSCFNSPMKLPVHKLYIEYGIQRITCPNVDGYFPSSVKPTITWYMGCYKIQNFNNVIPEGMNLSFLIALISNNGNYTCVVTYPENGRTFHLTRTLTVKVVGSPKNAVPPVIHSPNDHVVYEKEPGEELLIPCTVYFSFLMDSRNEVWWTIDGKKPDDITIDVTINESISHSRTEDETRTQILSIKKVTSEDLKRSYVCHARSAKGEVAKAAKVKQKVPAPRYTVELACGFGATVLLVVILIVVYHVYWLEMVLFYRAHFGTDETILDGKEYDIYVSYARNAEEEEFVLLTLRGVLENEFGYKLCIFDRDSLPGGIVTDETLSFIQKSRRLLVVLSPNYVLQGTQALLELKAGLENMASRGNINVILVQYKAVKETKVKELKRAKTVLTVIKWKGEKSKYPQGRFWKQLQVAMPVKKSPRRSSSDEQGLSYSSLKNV

T2: rhIL-1RAcP/Fc Chimera (human, UniProt Q9NPH3 21-359)
T2 construct: also called P013_03; P013-03
T2 sequence (looked up): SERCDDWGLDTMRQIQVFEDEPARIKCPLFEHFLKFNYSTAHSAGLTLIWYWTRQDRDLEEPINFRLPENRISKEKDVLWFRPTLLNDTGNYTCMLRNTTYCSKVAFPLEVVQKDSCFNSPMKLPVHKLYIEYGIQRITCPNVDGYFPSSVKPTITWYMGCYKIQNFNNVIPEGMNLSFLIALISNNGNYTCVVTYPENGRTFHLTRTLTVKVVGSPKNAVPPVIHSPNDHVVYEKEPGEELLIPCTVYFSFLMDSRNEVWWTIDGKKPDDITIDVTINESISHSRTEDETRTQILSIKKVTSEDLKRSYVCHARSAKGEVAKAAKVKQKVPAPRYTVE

T3: mIL1RAcP-Fc (murine, UniProt Q61730 21-359)
T3 construct: also called P013_04; P013-04
T3 sequence (looked up): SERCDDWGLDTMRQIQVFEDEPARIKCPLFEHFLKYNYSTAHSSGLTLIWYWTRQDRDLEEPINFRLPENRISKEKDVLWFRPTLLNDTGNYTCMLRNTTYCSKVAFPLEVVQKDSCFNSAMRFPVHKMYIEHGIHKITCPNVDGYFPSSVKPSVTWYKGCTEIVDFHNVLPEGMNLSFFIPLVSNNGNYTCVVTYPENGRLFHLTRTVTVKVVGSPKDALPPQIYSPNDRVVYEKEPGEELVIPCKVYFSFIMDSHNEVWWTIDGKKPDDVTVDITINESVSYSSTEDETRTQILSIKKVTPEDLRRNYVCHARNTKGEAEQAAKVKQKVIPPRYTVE


What was measured:
[1] = molecular target: T1, human IL-1RAcP on 293T/17-FR cells; test: cell-based or functional assay
rhIL-1RAcP/Fc Chimera [2] = molecular target: T2, rhIL-1RAcP/Fc Chimera; test: ELISA, recombinant purified mAb
mIL1RAcP-Fc [3] = molecular target: T3, mIL1RAcP-Fc; test: ELISA, recombinant purified mAb
rhIL-1RAcP/Fc Chimera [4] = molecular target: T2, rhIL-1RAcP/Fc Chimera; test: ELISA, primary supernatant, coated hu-IL-1RAcP-Fc
Procedure, shortened: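 Plates coated with 0.5 μg/mL Fc-tagged human IL-1RAcP; rabbit B-cell supernatant antibodies detected by peroxidase anti-rabbit IgG Fab2 and TMB, absorbance 450/620 nm. Parallel IL12Rβ1-Fc coating served as counterscreen to exclude tag binders.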

mIL1RAcP-Fc [5] = molecular target: T3, mIL1RAcP-Fc; test: ELISA, primary supernatant, coated mu-IL-1RAcP-Fc

functional reporter gene assay (% inhibition), 0.04 µg/mL mAb [1] | functional reporter gene assay (% inhibition), 0.2 µg/mL mAb [1] | functional reporter gene assay (% inhibition), 1 µg/mL mAb [1] | functional reporter gene assay (% inhibition), 5 µg/mL mAb [1] | primary supernatant functional assay (% inh.), NF-kB luciferase reporter [1] | EC50 (rhIL-1RAcP/Fc Chimera [2]) | EC50 (mIL1RAcP-Fc [3]) | hu-IL1RaP ELISA (OD) (rhIL-1RAcP/Fc Chimera [4]) | mu-IL1RaP ELISA (OD) (mIL1RAcP-Fc [5]) | Binder
41% | 52% | 68% | 70% | 75% | 0.039 µg/mL | 0.028 µg/mL | 2.8 OD | 3.4 OD | P013.S.01.B.F06 (antibody, V domains shown, rabbit monoclonal antibody; also called P013.A.00045.E09) VH: QSVEESGGRLVTPGTPLTLTCTVSGIDLSSDAVGWVRQAPGKGLEYIGIIVSSGETFYASWARGRCTISKTSSTTVDLRITRLTTEDTATYFCARGGPGYSFDTEYAFDPWGPGTLVTVSS VL: AFEMTQTPASVEVAVGGTVTINCQASQSIGSWLSWYQQKVGQRPKLLISRASTLASGVPSRFKGSGSGTEYTLTISGVQSDDAATFYCQQGATTYDVDNVFGGGTEVVVR
54% | 77% | 84% | 90% | 83% | 0.032 µg/mL | 0.332 µg/mL | 3.2 OD | 2.3 OD | P013.S.01.B.C03 (antibody, V domains shown, rabbit monoclonal antibody; also called P013.A.00133.D11) VH: QSVEESGGRLVTPGTPLTLTCTVSGIDLSNYAMSWVRQAPGKGLEWIGSVISGGSTYYATWARGRFTISKSSTTVDLKMTSLTTEDTATYFCARGCPGYNGDKYTFDLWGPGTLVTVSS VL: AFEMTQTPSSVSEPVGGTVTIKCQASQSIYNYLSWYQQKPGQRPKLLIYRASTLASGVPSRFKGSGSGTEFTLTISGVESADAATYYCQQGATSYDIENPFGGGTEVVVK
46% | 94% | 95% | 98% | 92% | 0.042 µg/mL | 0.025 µg/mL | 3.5 OD | 1.2 OD | P013.S.01.B.A02 (antibody, V domains shown, rabbit monoclonal antibody; also called P013.A.00003.H11) VH: QSVEESGGRLVTPGTPLTLTCTVSGIDLSSYAMGWVRQAPGKGLEYIGVITSSATTYYASWAKGRFTISKTSSTTVDLRVTSLTTEDTATYFCARGGPGYSTNTHYAFDPWGPGTLVTVSS VL: AFEMTQTPSSVSEPVGGTVTIKCQASQSIYIYLSWYQQKPGQRPKLLIYDASKLASGVPSRFSGSGSGTEFTLTISGVQSDDAATYYCQQGATTYNVDNVFGGGTEVVVK
15% | 5% | 11% | -2% | 40% |  | 0.044 µg/mL | 0.1 OD | 0.4 OD | P013.S.02.B.F05 (antibody, V domains shown, rabbit monoclonal antibody; also called P013.A.00109.B04) VH: RSLEESGGDLVKPGTSLTLTCTASGFSFSGNYYMCWVRQAPGKGLEWIACIVVGSGGNTYYAGWAKRRFTISKTSSTTVTLQMTSLTAADTATYFCASGSYDDYGDYWYFTLWGQGTLVTVSS VL: AIDMTQTPSPASAGVGDTVTINCQASENIYNFLAWYQQKPGHSPKLLIYVASKLASGVPSRFKGSGSGTQFTLTISDVQSDDAATYYCQQTYRYNDGDTAFGGGTEVVVK
1% | 19% | 20% | 13% | 42% |  | 0.206 µg/mL | 3.2 OD | 3.3 OD | P013.S.02.B.D05 (antibody, V domains shown, rabbit monoclonal antibody; also called P013.A.00086.B09) VH: QQQLVESGGGLVKPGASLTLTCKASGFSFSSGYYMCWVRQAPGKGLEWIACIGMGSGKTYYASWAKGRFTISKTSSTTVTLQMTSLTAADTATYFCARKDGSGNEHYNLWGPGTLVTVSS VL: DIVMTQTPASVEAAVGGTVTIRCQASQSISSYLAWYQRKPGQPPKVLIYKASTLASGVSSRFKGSGSGTEYTLTISDLESADAATYYCQQGYASSGVDNVFGGGTEVVVK
7% | -6% | 15% | 4% | 52% |  | 0.644 µg/mL | 3.2 OD | 1.7 OD | P013.S.02.B.H04 (antibody, V domains shown, rabbit monoclonal antibody; also called P013.A.00029.F11) VH: QSVEESGGRLVKPDETLTLTCTVSGIDLSSYAMGWVRQAPGKGLEYIGIISSSGRTYYANWAKGRFTISKASSTTVDLKITSPTTEDTATYFCARLITVDYYIYDYFNLWGQGTLVTVSS VL: AYDMTQTPASVEAAVGGTVTIKCQASQSISSYLSWYQQKPGQPPKLLIYGASTLASGVPSRFKGSGSGTEYTLTISGVESDDAATYYCQQGYSYNNVDNTFGGGTEVVVK
11% | 9% | 8% | -6% | -37% |  | 0.385 µg/mL | 3.6 OD | 3.5 OD | P013.S.02.B.E04 (antibody, V domains shown, rabbit monoclonal antibody; also called P013.A.00088.A02) VH: QSLEESGGDLVKPGASLTLTCTASGFSLSSGGMSWVRQAPGKGLGWIGYINTGSGSTYYASWVNGRFTISKTSSTTVSLQMTSLTAADTATYFCAGGLPSDLWGPGTLVTVSS VL: DIVMTQTPSSVEAAVGGTVTIKCQASQSINSRLAWYQQKPGQPPKLLIYSASTLASGVSSRFKGSGSGTEFTLTISDLESADGATYYCLSHYLTSSSSYGDAFGGGTEVVVK
-2% | 0% | 5% | 0% | -39% | 0.493 µg/mL | 0.082 µg/mL | 3.6 OD | 3.4 OD | P013.S.02.B.G02 (antibody, V domains shown, rabbit monoclonal antibody; also called P013.A.00014.C07) VH: QSLEESGGDLVKPGASLTLTCTASGFSLSSGGMTWVRQAPGKGLEWIGYINTGSGRTYYASWAKGRFIISKTSSTTVSLQMTSLTAADTATYFCAGGLPSDLWGPGTLVTVSS VL: DIVMTQTPSSVEAAVGGTVTIKCQASQSINSRLAWYQQKPGQPPKLLIYDASTLASGVSSRFSGSGTEFTLTISDLESADGATYYCLSHYLTSSSSYGNAFGGGTEVVVK

From US20190106487A1 (Sanofi, published 2019)
